Assay [1] has as its target T1, human TNFR1 (human, UniProt P19438).
T1 chain: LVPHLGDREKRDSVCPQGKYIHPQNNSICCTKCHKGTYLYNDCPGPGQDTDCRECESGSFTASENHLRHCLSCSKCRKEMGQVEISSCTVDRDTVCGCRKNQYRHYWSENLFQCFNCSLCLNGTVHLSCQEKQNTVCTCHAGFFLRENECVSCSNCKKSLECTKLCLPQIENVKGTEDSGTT
The experiment in a line: ELISA. A general note: In an ELISA, binding on a coated surface is turned into a signal by an enzyme label.

Assay [2] addresses T1, human TNFR1. The experiment in a line: ELISA.
Assay [3] concerns the target T1, human TNFR1. The experiment in a line: ELISA.
Assay [4] deals with T1, human TNFR1. The experiment in a line: SPR. Background: SPR reads the build-up and loss of mass on a sensor chip optically.
The target in assay [5] is DMS30038-R (DMS30051) (human). As to the kind of experiment: SPR 37C.

Numbering of substitutions follows the chain as printed. Names and notes keep the numbering of the source. Like-named read-outs stand apart in the source and are kept apart here.

B1: DOM1H-131-206 C-terminal S deletion (antibody, V domains shown)
VH: EVQLLESGGGLVQPGGSLRLSCAASGFTFAHETMVWVRQAPGKGLEWVSHIPPDGQDPFYADSVKGRFTISRDNSKNTLYLQMNSLRAEDTAVYHCALLPKRGPWFDYWGQGTLVTVS
As a reminder, the EC50 is the concentration that produces a half-maximal response. High values mean lower potency in that assay, low ones higher potency in that assay. In turn, B1 yielded a concentration giving a half-maximal response (EC50) in assay [1] of 500 pM.

B2: DOM1H-131-206 P14A + C-terminal ASTKG (antibody, V domains shown)
VH: EVQLLESGGGLVQAGGSLRLSCAASGFTFAHETMVWVRQAPGKGLEWVSHIPPDGQDPFYADSVKGRFTISRDNSKNTLYLQMNSLRAEDTAVYHCALLPKRGPWFDYWGQGTLVTVSS
In the case of B2, the 50% effective concentration (EC50) in assay [2] came to 4640 pM; in assay [1] it was 1470 pM.

B3: DOM1H-131-206 C-terminal ASTK (antibody, V domains shown)
VH: B2 VH with A14P
For the molecule B3, the concentration for a half-maximal effect (EC50) in assay [3] is 1590 pM.

B4: DOM1H-131-206 P14Q + C-terminal A (antibody, V domains shown)
VH: B2 VH with A14Q
The molecule B4 yielded an EC50 in assay [1] of 460 pM.

B5: DOM1H-131-206 P41A (antibody, V domains shown)
VH: B2 VH with A14P, P41A
For B5, the concentration giving a half-maximal response (EC50) in assay [3] was determined as 590 pM.

B6: DOM1H-131-206 Q13A (antibody, V domains shown)
VH: B2 VH with Q13A, A14P
B6 displayed a concentration giving a half-maximal response (EC50) in assay [3] of 1750 pM.

B7: DOM1H-131-206 P14A (antibody, V domains shown)
VH: B2 VH
In turn, B7 came in with an EC50 in assay [3] of 1220 pM.

B8: DOM1H-131-206 (antibody, V domains shown)
VH: B2 VH with A14P
The term Kd denotes a measure of binding affinity in units of concentration. Low readings indicate higher affinity, high ones lower affinity. Take B8: the EC50 in assay [3] came out at 1990 pM; in assay [2], 1970 pM; in assay [1] it was 670 pM. Besides, the Kd in assay [4] stood at 14.3 pM.

B9: DOM1H-131-206 P14K (antibody, V domains shown)
VH: B2 VH with A14K
B9: the EC50 in assay [1] was 720 pM.

B10: DOM1H-131-206 P14K + C-terminal A (antibody, V domains shown)
VH: B2 VH with A14K
In assay [1], B10 showed a half-maximal effective concentration (EC50) of 460 pM.

B11: DOM1H-131-206 P14K + C-terminal ASTKG (antibody, V domains shown)
VH: B2 VH with A14K
Turning to B11, in assay [1], the midpoint of the response, the EC50, lay at 480 pM.

B12: DOM1H-131-206 C-terminal A (antibody, V domains shown)
VH: B2 VH with A14P
Consider B12, for which the EC50 in assay [3] is 1210 pM; in assay [2], 2710 pM. Besides, the Kd in assay [4] worked out at 25.3 pM.

B13: DOM1H-131-206 L11A (antibody, V domains shown)
VH: B2 VH with L11A, A14P
In turn, B13 had an EC50 in assay [1] of 510 pM.

B14: DOM1H-131-206 C-terminal ASTKGP (antibody, V domains shown)
VH: B2 VH with A14P
In turn, B14 yielded an EC50 in assay [3] of 11900 pM.

B15: DOM1H-131-206 P14A, G44E (antibody, V domains shown)
VH: B2 VH with G44E
On to B15, for which a half-maximal response in assay [3] (EC50) required 2030 pM.

B16: DOM1H-131-206 P14A + C-terminal A (antibody, V domains shown)
VH: B2 VH
As for B16, the EC50 in assay [2] came to 2220 pM; in assay [1], 570 pM.

B17: DOM1H-131-206 P14Q + C-terminal ASTKG (antibody, V domains shown)
VH: B2 VH with A14Q
B17: the response in assay [1] was half-maximal at 1100 pM (EC50).

B18: DOM1H-131-206 K43A (antibody, V domains shown)
VH: B2 VH with A14P, K43A
Consider B18, for which the EC50 in assay [3] was found to be 670 pM.

B19: DOM1H-131-206 P14T + C-terminal ASTKG (antibody, V domains shown)
VH: B2 VH with A14T
Molecule B19 displayed an EC50 in assay [1] of 720 pM.

B20: DOM1H-131-206 C-terminal ASTKG (antibody, V domains shown)
VH: B2 VH with A14P
Regarding B20, the half-maximal effective concentration (EC50) in assay [3] worked out at 1110 pM; in assay [2], 1900 pM.

B21: DOM1H-131-206 C-terminal AST (antibody, V domains shown)
VH: B2 VH with A14P
Turning to B21, the EC50 in assay [1] stood at 1990 pM.

B22: DOM1H-131-206 P14T + C-terminal A (antibody, V domains shown)
VH: B2 VH with A14T
Take B22: the EC50 in assay [1] worked out at 660 pM.

B23: DOM1H-131-206 G44E (antibody, V domains shown)
VH: B2 VH with A14P, G44E
B23 registered an EC50 in assay [3] of 860 pM.

B24: DOM1H-131-206 P14T (antibody, V domains shown)
VH: B2 VH with A14T
For the molecule B24, the EC50 in assay [1] amounted to 770 pM.

B25: DOM1H-131-206 P14E (antibody, V domains shown)
VH: B2 VH with A14E
B25 yielded a concentration giving a half-maximal response (EC50) in assay [1] of 640 pM.

B26: DOM1H-131-206 P14Q (antibody, V domains shown)
VH: B2 VH with A14Q
B26 registered an EC50 in assay [1] of 910 pM.

B27: VEGF165 (protein)
chain: APMAEGGGQNHHEVVKFMDVYQRSYCHPIETLVDIFQEYPDEIEYIFKPSCVPLMRCGGCCNDEGLECVPTEESNITMQIMRIKPHQGQHIGEMSFLQHNKCECRPKKDRARQENPCGPCSERRKHLFVQDPQTCKCSCKNTDSRCKARQLELNERTCRCDKPRR
Molecule B27 showed an equilibrium dissociation constant (Kd) in assay [5] of 0.00431 pM.
